Reference: the nanobody polyreactivity screen of Harvey et al. (2022)

Experiment: yeast display, Sf9 membrane polyspecificity reagent, FACS + sequencing; frameworks hold sequencing errors
Method in brief: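 A nanobody's polyreactivity label depends on the gate it was sorted from. Yeast display cells were stained with 10% biotinylated, detergent-solubilized Sf9 membrane reagent for 1 hour at 4 °C, enriched on streptavidin microbeads and sorted by FACS. The low and high (top ~1%) gates were set on anti-HA fluorescence for expression and streptavidin fluorescence for reagent binding.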

## QVQLVESGGRLVQAGGSLRLSCAASGRTLSSYVIGWYRQAPGKERELVAAITQSTSRTYYADSVKGRFTISRDNAKNTVYLQMHSLKPEDTAVYYCAAEGRFGRKYGYWGQGTQVTVSS
  polyreactivity (PSR sort gate): low polyreactivity

## QVQLVESGGGLVQAGGSLRLSCAASGRTFKFYAMGWDRQAPGSDRELVAAISSSGGRTYYADSVKGRFTISRDNAKNTVYLQMNSLKPEDTAVYYCAAVPGSKFVQKDDYWGQGTQVTVSS
  polyreactivity (PSR sort gate): low polyreactivity

## QVQLVESGGGLVQAGGSLRLSCAASGRILYIYAMGWYRQAPGKERELVASISWTDGSTYYADSVKGRFTISRDNAKNTVYLQMNSLKPEDTAVYYCNAAYYYYWELKKYNYWGPGTQVTVSS
  polyreactivity (PSR sort gate): low polyreactivity

## QVQLVETGGGLVQAGGSLRLSCAASGFIFGYNARGWYRKAPGQVRELVAAISSGGRTYYADSVKGRFTISRDNAKHTVYLQMNSLKPQDTAVYYCSVDPHLYALRGAVYYWGQGTQVTVSS
  polyreactivity (PSR sort gate): low polyreactivity

## QVQLVESGGGLVQAGGSLRLSCAASGSTFLINAMGWYRQAPGKERELVAAISRDGSTNYADSVKGRFTISRDNAKNTVYLQMNSLKPEDTAVYYCAAVPGISVGRQPGYDYDYWGQGTQVTVSS
  polyreactivity (PSR sort gate): low polyreactivity

## LVQLVESGGGLVQAGGSLRLSCAASGRTFPGYAMGGYSQAPGKERELVASINFRGGGTYADSVKGRFTISRDNAKNTVYLLMNSLKPEDTAVYYCAAEYFWGKRRFGYWGQGTQVTVSS
  polyreactivity (PSR sort gate): high polyreactivity

## QVQLVESGGGLVQAGGSLRLSCAASGSIYTQNAMGWYRQAPGKERELVADISRGSTYYADSVKGRFTISRDNAKNTVYLQMNSLKPEDTAVYYCAADDIAHPSFVSTVDVGMDYWGQGTQVTVSS
  polyreactivity (PSR sort gate): low polyreactivity

## QVQLVESGGGLVQAGGSLRLSCAASMGWYRQAPGKERELVAAITTRTGTTYYADSVKGRFTISRDNAKNTVYLQMNSLKPEDTAVYYCSKRGYYRYYYWGQGTQVTVSS
  polyreactivity (PSR sort gate): high polyreactivity

## QVQLQESGGGLVQVGGSQRLSCAASGNIFYNYAMVWYRNAQGKEREFDATIKNGTSINYADSVKGRFTISRDNAKNTVYLQMNSLTPEDTAVYYCAADLSWTDNLFYWGQGTQVTVSS
  polyreactivity (PSR sort gate): low polyreactivity

## QVQLVESGGGLVKAGGSLRLSCAASGSTFGLYVMGWYRQAPGKERELVAAINRIGSRTYYADSVKGRFTISRDNAKNTVYLQMNSLKPEDTAVYYCAADYDYTSPGDDYWGQGTQVTVSS
  polyreactivity (PSR sort gate): high polyreactivity

## QVQLVESGGGLVQAGGSLRLSCAASGYTISRYAMGWYIQAHGKERQLVAAISSRGGSTYYADSVKGRFTISRDNAKNTVYLQMNSLNPEDTADYYWAEDYGVGYGIVGSYYWGQGTQVTVSS
  polyreactivity (PSR sort gate): high polyreactivity

## QVQLVESGGGLVQAGGSLRLSCAASGSIFSWYAMGWYRQAPGKERELVAAIRRGGSTYYADSVKGRFTISRDNAKNTVYLQMNSLKPEDTAVYYCAARVYTAASRGRGDYWGQGTQVTVSS
  polyreactivity (PSR sort gate): low polyreactivity

## QVQLVESGGGLVQAGGSLRLSCADSGQNAMGWYRQAPGKERELVAAISRGGDSTYYADSVKGRFTISRDNAKNSVYLQMNSLKPEDTAVYYCAASYYRRYGYNYWGQGTQVTVSS
  polyreactivity (PSR sort gate): high polyreactivity

## QVQLVESGGGLVQAGGSLRLSCAASGRTFCVYVMGWYRQAPGKERQLVAAIDDSGGSTYYADSVKGRFTISRDNAKNTVYLQMNSLKPEDTAVYYCAKTKTQYLTSEIRFDYWGQGTQVTVSS
  polyreactivity (PSR sort gate): low polyreactivity

## QVQLVESGGGLVQAGGSLRLSCAASGSTLGSNAMGWYRQAPGKERELVAAITWSGGTTYYADSVKGRFTISRDNAKNTVYLQMISLKPEDTAVYYCATGQSVIYRYEYWGQGTKVTVSS
  polyreactivity (PSR sort gate): low polyreactivity

## QVQLVESGGGLVQAGGSLRLSCAASGSTLVIYAMGWYRQAPGKEREFVAAIRWSTGRTYYADSVKGRFTISRDNAKNTVYLQMNSLKPEDTAVYYCNASYWAPNSLPDGFRYDSWGQGTQVTVSS
  polyreactivity (PSR sort gate): high polyreactivity

## QVQLVESGGGLVQAGGSLRLSCAASGSTFTGNAMGWYRQAPGKERELVAAISRSGGSTFYADSVKGRFTISRDNAKNTVYLQINSLKPEDTAVYYCAAPVYLYGTVGRGDYWGQGTQVTVSS
  polyreactivity (PSR sort gate): high polyreactivity

## QVQLVESAGGLVQARVSLRLSSAASGRTIPTYTMGWYRQAPGKERELVAAITRGGSTKYADSVKGRFTISRDNAKNTVYLQMNSLKPEDTAVYYCAAVYRYRHSFAYYRHEMDYWGLGTQVTVSS
  polyreactivity (PSR sort gate): low polyreactivity

## QVQLVESGGGLFQAGGSLRLSCAASGGTFNFYAMGWYRQAPGKERELVARIDSGVSTNYADTVKGRFTISRDNAKNTVYLQMNSLKPEDTAVYYCNAERYRSRRYPYRYLYYYWGQGTQVTVSS
  polyreactivity (PSR sort gate): high polyreactivity

## QVQRVESGGGLVQAGGSLRLSCAASGITFWGYAMGWYRQAPGKDREFVARINWSGGRTYYAESVKGRFRISRDNAKNTVYLQMNSLKPEDTAVYYCNVVLRSVVSGDYWGQGTQVTVSS
  polyreactivity (PSR sort gate): high polyreactivity

## QVQLVESGGGLVQAGGSLRLSCAASGSIFRIYAMGWYRQAPGKERELVAAISFSTGSRTYYADSVKGRFTISRDNAKNTVYLQMNSLKPEDTAVYYCAAEYHPRVLYPNWYDYWGQGTQVTVSS
  polyreactivity (PSR sort gate): low polyreactivity

## QVQLVESGGGLVQAGGSLRLSCAASGRTFRWYAMGWYRQAPGKERELVADISSVGSTDYADSVKGRFTISRDNAKNTVYLQMNSLKPEDTAVYDCAADFSPRRYHNRSFGYWGHGTQVTVSS
  polyreactivity (PSR sort gate): low polyreactivity

## QVQLVESGGRLVQAGGSLRLSCAASGRTFSFYAMGWYRQAPGQERELVAGIDWDDGSTSYADSVKGRFTISRDNAKNSVYLQMNSLKPEDTAVYYCAADIGYDDYNDYDYWGQGTQVTVSS
  polyreactivity (PSR sort gate): low polyreactivity

## QVQLVESGGGLVQAGGSLRLSCAASGSIFSPNAMGWYRQAPGKEMELVPRITSGGSTFYADSVKGRFTISRDYAKNTVYLQMYSLKPEDTAVSYCAAVQTRYTSVFSSTRYDYWGQGTQVTVSS
  polyreactivity (PSR sort gate): low polyreactivity

## QVQLVESGGGLVQAGGSLRLSCAASGFTFYGYAMGWYRQAPGKERELVAAISRSGVRTYYADSVKGRFTISRDNAKNTVYLQMNSLKPEDTAVYYCNAVPRYGYYWGQGTQVTVSS
  polyreactivity (PSR sort gate): high polyreactivity

## QVQLVESGGGLVQAVGRLRLSCAASGLTFQYYAMGWYRQAPGKERELDAAISRSGGRSYYADSVKGRFTISRDNAKYTVYLQMISLKPEDSAVSYCNAVRRFASPTRHYYWGQGTQVTVSS
  polyreactivity (PSR sort gate): high polyreactivity

## QVQLVESGGGLVQAGGSLRLSCAASGRIFKNYAMGWYRQAPGKERELVAGITRTGGSTYYADSVKGRFTISRDNAKNTVYLQMNSLKPEDTAVYYCAARPARKLVYWVQGTQVTVSS
  polyreactivity (PSR sort gate): high polyreactivity

## QVQLVESGGGLVQAGGSLRLSCAASGITFKSYAMGWYRQAPGKERELVAAIARRGGSTYYADSVKGRFTISRDNAKNTVYLQMNSLKPEDTAVYYCAADSGREPKGPSRLTYWGQGTQVTVSS
  polyreactivity (PSR sort gate): high polyreactivity

## QVQLVESGGGLVQAGGSLRLSCAASGGTFRVYAMGWYRQAPGKERELVAAISSGGSTNYADSVKGRFTISRDNAKNTVYLQMNSLKPEDTAVYYCNAKYRYRFARSPIYYYWGQGTQVTVSS
  polyreactivity (PSR sort gate): low polyreactivity

## QVQLVESGGCLVQAGGSLRLSCAASGSTFTGYAMGWYRQAPGKEREFVATITKRGGRTYYADSVKGRFTISRDHAKNTVYLQMNSLKPEDTAVYYCARDQGKLVVPYDYWGQGTQVTVSS
  polyreactivity (PSR sort gate): high polyreactivity

## QVQLQESGGGLVQAGGSMRLSCAATGSISELRPMGWYSQAPGKERELVAGISTGGSTNYADSVKGRFTISRDNAKNTVFLQMNSLKPEDTAVYYCAAGSYGEGTYDYWGQGTQVTVRS
  polyreactivity (PSR sort gate): high polyreactivity

## QVQLVESGGGLDQAGGSLRLSCAASGSTFRQNVKGWYRQAPGKERELVAAISKSGGSTYYADSVKGRFTISRDNAKNTVYLQMNSLKPEDTAVYYCATRQRQRVDNREYYYWGQGTQVTVSS
  polyreactivity (PSR sort gate): high polyreactivity

## QVQLVESGGGLVQAGGSLRLSCAASVFTFNDYAMGWYRQAPGKERELVAAIDWSGGRTYYADSVKGRFTISRDNAKNTVYLQMNSLKPEDTAVYYCAAVLYSRLYWYRLDYWGQGTQVTVSS
  polyreactivity (PSR sort gate): low polyreactivity

## QVQLEESGGGLDQAGVSLRLSCAASGRTFPSNTMGWYRQAPGKERELVAAISWRGGSTYYADSVKGRFTITRDNAKKTVYLQMNSLKPEDTAVYYCNTLTKAYRSKSYYEWGHGTQVTVSS
  polyreactivity (PSR sort gate): high polyreactivity

## QVQLVESGGGLVQAGGSLRLSCAASGRTFQSNAMGWYRQAPGNERELVAAISRRGGSTYYADSVKGRFTISRDNEKNTVYLQMNCLKPEDTAVYYCNRDAKAGDWGQGTQVTVSS
  polyreactivity (PSR sort gate): high polyreactivity

## QVQLVESGGGLVQAGGSLRLSCAASGFTLQQYTMGWYRQAPGKERELVAAISTSGVRTYYADSVKGRFTISRDNAKNTVYLQMNSLKPEDTAVYYCNAKVRKSRFYYWGQGTQVTVSS
  polyreactivity (PSR sort gate): high polyreactivity

## QVQLVESGGGLVQAGGSLRLSCAASGSTFGLYTMGWYRQAPGKERELVASISIGGSTYYADSVKGRFTISRDNAKNTVYLQMNSLKPEDTAVYYCAADVKRDRVWGGDYWGQGTQVTVSS
  polyreactivity (PSR sort gate): low polyreactivity

## QVQLVESGGGLVQAGGSLRLSCAASGIIFGVNVMGWYRQAPGKERELVATITWRGDSTYYADSVKGRFTISRDNAKNTVYLQMNSLKPEDTAVYYCARGARTGVREDDYWGQGTQVTVSS
  polyreactivity (PSR sort gate): low polyreactivity

## QVQLVESGGGLVQAGGSLRLSCAASGFTFRYYVMGWYRQSPGKERELVASISRAGSTTNYADSVKGRFTISRDNAKNTVYLQMNSLNPEDTAVYYCNVVITPGYSYDISRGEGYWGQGTQVTVSS
  polyreactivity (PSR sort gate): high polyreactivity

## QVQLVESGGGLVQAGGSLRLSCAASGFTFGSYAMGWYRQAPGTERELVAAISCSGGSTYYADSVKGRFTISRDNAKNTVYLQMNSLKPEDTAVYYCAVRYPLYRMDYWGQGTQVTVSS
  polyreactivity (PSR sort gate): high polyreactivity

## QVQLVESPGGLVQAGGSLRLSCAASGSIFGSYAMGWYRQEPGKEREFVAVITSASTNYADSVKGRFTISRDNAKNTVNLQLNSLKPEDTAVYYCNKRGTRIRRTNKSHGVDYWGQGTQVTVSS
  polyreactivity (PSR sort gate): low polyreactivity

## QVQLVESGGGLVQAGGSLRLSCAASGSTFYYYTMGWYRQAPGKERELVAAISSSGGSTYYADSVKGRFTISRDNAKNTVYLQMNSLKPEDTAVYYCNAARKGYRVYTLIDRHKYDYWGQGTQVTVSS
  polyreactivity (PSR sort gate): high polyreactivity

## QVQLVESGGGLVQAGGSLRLSCAASGRTFVYNVMGWYRQAPGKERELVAAISSGGSTNYADSVKGRFTISRDNGKNTVYVQMNSLKPEDTAVYYCNAGTLYYRYRWGHYYDSWGQGTQVTVSS
  polyreactivity (PSR sort gate): low polyreactivity
